Reference: the DeepSol protein solubility set

Assay: soluble on expression in E. coli; label from the status in PepcDB or PDB records
With “MSKLFPGEVFANTADFDTGIRQLLPRYDEMLEVICRCLPLTSRRILDLGCGTGELSLKILQRCPDAQVIALDYSPRMLKFAQNKIVASGYKERWTGLQADFGDWAINPETLNIGNEFDACVSSLAIHHLYDEMKLQLFQRIAASLTPNGCFWNADPILPESPTLAEIYQAAREEWVSEQGSNFTEVRAKVGDSSPQGYSNPDQLATLDTHLQMLTKSGFTTVAVPWKYYGLAVFGGWVKLEHHHHHH” the “soluble on expression in E. coli” value was “soluble”. In the case of “MTQLRHFSHGASVFDIDSVEDFTEKVIQSSVPVIVDFHAEWCGPCQALGPRLEEKVNGRQGSVLLAKINVDHAGELAMDYGISAVPTVFAFKNGEKISGFSGVLDDEQLDDFIEDVLAA”, the “soluble on expression in E. coli” value is reported as “not soluble”. For “MTHSLVCPETVSRVSSVLNRNTRQFGKKHLFDQDEETCWNSDQGPSQWVTLEFPQLIRVSQLQIQFQGGFSSRRGCLEGSQGTQALHKIVDFYPEDNNSLQTFPIPAAEVDRLKVTFEDATDFFGRVVIYHLRVLGEKV”, the “soluble on expression in E. coli” value was “soluble”. For “MSLPEYDPDKYRGIDVSYVNICMRRAWLSLHEIFYVRDSYYVSDGAYLADINRKGLPISTGRSRMDNVQIHKDFIMVHEYKRGYKMIKADKMQILHYMYIIKLKENLDIKGKLHFLGSKKVVDIELNDENLNELYKSYENIDKLKDMAKPPEPVRNYFCVHGCSYSDFCWCEGHHHHHH”, the “soluble on expression in E. coli” value was “soluble”. In the case of “MAHHHHHHSLTTSHILGFPRVGAKRELKFAQERYWRKELAEQDLLDLAKALREKNWKHQAAANADFVAVGDFTFYDHILDLQVATGAIPARFGFDSQNLTLDQYFQLARGNKDQFAIEMTKWFDTNYHYLVPEFQKSTAFKANPAHYVNQIREAKALGLNFKPVIVGPLTFLWLGKEKGEAFNRFDLLNQLVPVYVEILNALVAEGAEWIQIDEPALALDLPAEWVEAYKSVYTELSKVNAKLLLATYFGSVAEHAELLKALPVAGLHLDLVRAPEQLAAFEDYSKVLSAGVIEGRNIWRANLNKVLDVLEPLKAKLGERLWIAPSCSLLHTPFDLEVEVQLKEKNTALYSWLSFTLQKVEELNVLKQALNNGRASVQAALDASQVAADARATSKEIHRPEVAERLANLPKGADQRKSPFAERIVKQNAWLNLPLLPTTNIGSFPQTTEIRHARASFKKGELSLADYEAAMKKEIEYVVRRQEELDLDVLVHGEAERNDMVEYFGELLDGFAFTKFGWVQSYGSRCVKPPVIYGDVTRPEPMTVRWSQYAQSLTNRVMKGMLTGPVTILQWSFVRNDIPRSTVCKQIGVALSDEVLDLEAAGIKVIQIDEPAIREGLPLKRADWDAYLQWAGEAFRLSSMGVQDDTQIHTHMCYSEFNDILPAIAALDADVITIETSRSDMELLTAFADFKYPNDIGPGVYDIHSPRVPTATEVEHLLRKALNVIPKERLWVNPDCGLKTRGWTETIDQLKVMVDVTKKLRAELAEG”, the “soluble on expression in E. coli” value is reported as “soluble”. In the case of “SKDFTWEVGYNITWNDSKITKLTTTFNPDYQGIDAGTNQKHQVGEMPGTFYLYQQVYDENGKPIQNAFVDRNNDGQITEADRYLTHKSPMAKVYMGFSSQFSYKKWDLGFNLRANFGNYVYNGVASGNSTSNNYGGKGFVTNLYNGFQDTGFTLLNTSEQMASDYFLENASFLKMDNITLGYSFQNLFAAKLSGRISASVQNVFTISKYSGLDPECGAIDSNIWPRPRTYTIGLNLNF”, the “soluble on expression in E. coli” value is reported as “not soluble”. For “MSLTPAPDLTLGTAVDWRFAATVGRRLARPGPPSTDYTRRQVIDELAGAATKAEPLVRQVTGLLTDGADDGRVPAARIVDRPEWIAAAAESMRVMMNGTERPRGFLTGRVTGAQTGAVLAYVSSGILGQYDPFATDRGAGAGCLLLVYPNVIAVERQLRIEPSDFRLWVCLHEVTHRVQFTANPWLPGYMSQALALLTRDTGDDLGQVLSRLADYARNRGNTASQADANSTGILGLVRAVQSEPQRQALDQLLVLGTLLEGHADHVMDAVGPMAVPSVATIRRRFDERRHRKQPPLQRLLRALLGLDAKLSQYTRGKAFVDQVVGRVGMARFNAVWTGPETLPLPVEIEEPQRWIDRVLEGHHHHHH”, the “soluble on expression in E. coli” value was “soluble”. In the case of “MGSDKIHHHHHHMNRLGKALPPLASLMPFEAAARLESFSRAADELHLTQAAISRQIRALEDDLGVALFERRNRGVFLTAAGREFGRTVSAALEGIAAQANALRQEVHDGVVVLFCQLCEAFYWVMPRLASLNRRHPELEVRLVTSTRPVVEHHDYFDVALQTSGRPSGSHALAFTASDEIFPICSPGYLAAQPRPITLASLPEHCLLHHEADPPDWFEWDSWLRAMGNFAPALGNGMVFDSYPLVLQAALAGHGIALGWRRSAEHLIQSGQLVRPLSMSLPLDNALSVYTRHGAQPRAETLALLDWLQREFRRDDQTTPA”, the “soluble on expression in E. coli” value is reported as “not soluble”. For “MKEPVKPTVKLAEIPPREPRFTPEQERIYARLSVHDPFNMLSEQHKANLIQLMTHGLGYRPIQLS”, the “soluble on expression in E. coli” value was “not soluble”. For “SLSEKVIDMYKSENCGCCSLWGKAMEKDGFEVRTHIMNDQALSALKEKHAIPAGLRSCHTAVAGNLIIEGHVPATTIHKAMQSGSGIYGLATPGMPAGSPGMEMGARKEAYDVIAFSPDGSKKVFQRIE”, the “soluble on expression in E. coli” value was “soluble”. With “MGSDKIHHHHHHMIDVENILEKMKPNQKINYDWVMQQMVKQWQASDIRPKILMHVCCAPCSTYTLEYLSQWADVTIYFANSNIHPKDEYYRREYVTQKFVHDFNKNTGYSVQFLSAPYEPNEFFKIVHGLEEEPEGGDRCKVCYDFRLDKTAEKAVELGFDYFGSALTISPHKNSQTINTIGIDVQKIYDTQYLPSDLKKNKGYQRSVEMCKDYDIYRQCYCGCIFGAKDQGINLLQIKKDAKAFVSDKDGKEEFPNIRFTFNGKSM” the “soluble on expression in E. coli” value was “not soluble”. With “MSDGHHNGHEHVPSRQRRRFPGISSRAYEHPADRSALVALRKLSGFDTVFKALSGLLPERSLRLLFLSDSVRVSDRQFAHLNVMLRDACYILDLEKVPPMYVNQDPVPNAMCIGLDEPIIVVTTGLVELLDEEEMRAVVGHEVGHALSGHAVYRTILLFLTSLAVRVAWIPLGNVAIMAIVTALREWFRKSELSADRAGLLVGQDLQASMRGLMKIAGGNHLHEMNVDAFLEQAEEYEAGGDLRDSVLKILNVLPRSHPFTTVRAAELKKWAASRDYQRIMDGHYPRRDEDRNTSVRDSFRESASHYATHVRSSKDPLMKLVNDIAGGAGDLGDRMRRGFGGFTGSQPRPPEDDGGPAQGPGGSGRPDGPDRPEGPEGSGGSEEPGGDGPESPRDGSPRDGALEHHHHHH” the “soluble on expression in E. coli” value was “not soluble”. In the case of “SNAMPKRSKEDTEITIQKIMDAVVDQLLRLGYDKMSYTTLSQQTGVSRTGISHHFPKKTDFTAALDGRIFKMFIEHLEFEKGLDAFSQSWIKALEDSEFLAILRLLFHHIVTSESAHEFAANGIDRLYKMVESQFGSGGDKELEWLIGRSLIQMSK”, the “soluble on expression in E. coli” value is reported as “soluble”. For “MGSDKIHHHHHHMKIAQVAPLWERVPPPSYGGIELVVSHLTNELVRRGHEVTLFASGDSQTLAHLETVCPRALRLDKNVQDYAAYETLELSQVYQNATEFDIIHSHLGISALPLANLVKTPTVHTLHGHFTKDNQNVFSHHHQQPYVSISNAQRQIHLNYIKTVYNGIEPKDYPFISQPKEPPYLAFLGRFSPEKGPHQAIAIAKQSGWRLKMAGKVDIVDAKFFEQEILPHIDGQQIEYLGEINHTEKAELLGNAAATLFPINWQEPFGLVMIESMATGTPVIGMNLGSVPEVIDQGKTGFICRTYEEMIQMIAVTLELDRRDCRESVVNKFSVSHMVDGYEAVYQQIIKDRVNLNGYIHTAKIRF”, the “soluble on expression in E. coli” value was “not soluble”. With “MGHHHHHHSHMNNQKVVAVLLQECRALLPSELRTLIQEAKEMKWPFVPEKWQYKQAVGPEDKTNLKDVIGAGLQQLLASLRASILARDCAAAAAIVFLVDRFLYGLDVSGKLLQVAKGLHKLQPATPIAPQVVIRQARISVNSGSHPAKHSM” the “soluble on expression in E. coli” value was “not soluble”. For “MGRVVLWLLLLALLPAYAQETYDWIVVLGAAQYGGRPSPALERRLQAALHLFREGRGRRIAVAGGKAPEDLYSEGEVGCRYLAARGVPEEALFCETRSRSTYENLLFLKPHLEGRLLLVTDAPHLPRALFLARLLGLEAEGYPVPGNYPLGYWAKEALYRLWLYLGLRPQGVFSSRFNASRAAALEHHHHHH”, the “soluble on expression in E. coli” value was “not soluble”. In the case of “QAILYVGHGSRVKKAQQEAAAFLEGCKAHISVPVQEISFLELQEPTIETGFEACVKQGATHIAVVPLLLLTAAHAKHDIPEEIVRVASRYPSVRISYGKPIGIDEEVVKAVYHRMKDIGVPYENARVVLIGRGSSDPDVKRDVTGIANLLQEMVPVKEVIPCFLTACGPNYKEVFSELEKDDGITTFIVPYLLFTGMLMNEIEREVQKLKAHNPNVYLSSYIGFHPHVKNAFLNRVRETAANSEGQFDFDGGSYASAAH”, the “soluble on expression in E. coli” value is reported as “not soluble”.
